Data published in the supplement of paper PMC10724198.
± gives the standard deviation of the averaged measurements.

What was measured:
Saccharomyces cerevisiae [1] = assay: protein stability index of tFT-peptide fusion (C-terminal peptide) (PSI (0-1 scale)); higher = more stable (slower turnover)
Procedure: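 MPS profiling in S. cerevisiae of the tFT-X12 degron library: putative degron peptides plus stable controls, 12 aa, fused to the C-terminus of a sfGFP-mCherry timer. Cells are FACS-sorted into 8 mCherry/sfGFP bins and deep-sequenced. PSI runs from 0 (unstable) to 1 (stable). Backgrounds are wild type, das1Δ and doa10Δ at 30 °C, and wild type, das1Δ, cdc34-1 and cdc53-1 at 37 °C; 2-3 technical replicates each.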

Saccharomyces cerevisiae [2] = assay: as above; details: genetic background: wild type; temperature: 30 C
[3] = genetic background: cdc34-1, temperature: 37 C
[4] = genetic background: cdc53-1, temperature: 37 C
[5] = genetic background: das1 deletion, temperature: 30 C
[6] = genetic background: das1 deletion, temperature: 37 C
[7] = genetic background: doa10 deletion, temperature: 30 C
[8] = genetic background: wild type, temperature: 30 C
[9] = genetic background: wild type, temperature: 37 C
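Also: PSI is a weighted mean of sequencing reads over stability bins, variants kept only with over 10 reads, mCherry proximal and sfGFP distal, peptide attached via GGGS linker.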

| Sequence | protein stability index (Saccharomyces cerevisiae [1]; [3]) | protein stability index (Saccharomyces cerevisiae [1]; [4]) | protein stability index (Saccharomyces cerevisiae [1]; [5]) | protein stability index (Saccharomyces cerevisiae [1]; [6]) | protein stability index (Saccharomyces cerevisiae [1]; [7]) | protein stability index (Saccharomyces cerevisiae [1]; [8]) | protein stability index (Saccharomyces cerevisiae [1]; [9]) | protein stability index (Saccharomyces cerevisiae [2]) |
| --- | --- | --- | --- | --- | --- | --- | --- | --- |
| TCGAKWIFSHIC | 0.6 ± 0.054 | 0.754 ± 0.011 | 0.646 ± 0.022 | 0.772 ± 0.016 | 0.14 ± 0.0052 | 0.152 ± 0.0092 | 0.275 ± 0.035 | 0.267 ± 0.019 |
| FFRAYLQMYVTD | 0.412 ± 0.0053 | 0.471 ± 0.021 | 0.413 ± 0.029 | 0.4057 ± 0.0032 | 0.423 ± 0.032 | 0.416 ± 0.043 | 0.412 ± 0.0073 | 0.362 ± 0.018 |
| GFESTCSLLCVF | 0.33 ± 0.026 | 0.348 ± 0.015 | 0.314 ± 0.036 | 0.433 ± 0.001 | 0.264 ± 0.021 | 0.306 ± 0.026 | 0.407 ± 0.013 | 0.43 ± 0.029 |
| FSCWLFMLCVFL | 0.4339 ± 0.0012 | 0.459 ± 0.015 | 0.401 ± 0.013 | 0.466 ± 0.026 | 0.37 ± 0.017 | 0.316 ± 0.023 | 0.454 ± 0.025 | 0.393 ± 0.025 |
| RSKWEKLDKIVS | 0.675 ± 0.032 | 0.777 ± 0.045 | 0.629 ± 0.051 | 0.681 ± 0.0091 | 0.314 ± 0.022 | 0.396 ± 0.047 | 0.575 ± 0.018 | 0.455 ± 0.0083 |
| PWLLHTPLSLVF | 0.321 ± 0.032 | 0.356 ± 0.018 | 0.335 ± 0.017 | 0.403 ± 0.0063 | 0.3182 ± 0.00076 | 0.349 ± 0.0058 | 0.4 ± 0.0051 | 0.434 ± 0.0077 |
| RRRRGGQSPALR | 0.651 ± 0.049 | 0.674 ± 0.0087 | 0.71 ± 0.032 | 0.6928 ± 0.0059 | 0.735 ± 0.022 | 0.717 ± 0.03 | 0.6636 ± 0.0065 | 0.711 ± 0.015 |
| RGFIYCSFVVRL | 0.4134 ± 0.00058 | 0.466 ± 0.029 | 0.328 ± 0.025 | 0.532 ± 0.012 | 0.301 ± 0.016 | 0.33 ± 0.021 | 0.465 ± 0.022 | 0.412 ± 0.0052 |
| RYRVRIVVFGLV | 0.407 ± 0.018 | 0.485 ± 0.068 | 0.365 ± 0.015 | 0.59 ± 0.032 | 0.075 ± 0.02 | 0.088 ± 0.046 | 0.0807 ± 0.0076 | 0.14 ± 0.018 |
| SFFVCVRVFGCC | 0.315 ± 0.012 | 0.369 ± 0.011 | 0.255 ± 0.042 | 0.44 ± 0.0095 | 0.2075 ± 0.0016 | 0.239 ± 0.018 | 0.398 ± 0.011 | 0.337 ± 0.021 |
| KLKTSHILIKQT | 0.665 ± 0.059 | 0.729 ± 0.0099 | 0.606 ± 0.029 | 0.716 ± 0.024 | 0.1562 ± 0.0013 | 0.223 ± 0.033 | 0.452 ± 0.011 | 0.3668 ± 0.0036 |
| LWERRSRQLTMF | 0.645 ± 0.056 | 0.7649 ± 0.003 | 0.687 ± 0.014 | 0.7401 ± 0.0057 | 0.173 ± 0.011 | 0.166 ± 0.018 | 0.33 ± 0.026 | 0.263 ± 0.013 |
| RSFPCITVFIRA | 0.514 ± 0.011 | 0.469 ± 0.029 | 0.328 ± 0.036 | 0.50913 ± 0.00021 | 0.325 ± 0.03 | 0.323 ± 0.023 | 0.5088 ± 0.0019 | 0.4235 ± 0.0035 |
| LSFLFFRLCSFF | 0.487 ± 0.066 | 0.551 ± 0.0081 | 0.568 ± 0.034 | 0.668 ± 0.021 | 0.157 ± 0.0029 | 0.158 ± 0.017 | 0.184 ± 0.04 | 0.203 ± 0.061 |
| LLYYMPELLILT | 0.152 ± 0.0021 | 0.145 ± 0.028 | 0.208 ± 0.0081 | 0.273 ± 0.0049 | 0.242 ± 0.013 | 0.199 ± 0.025 | 0.264 ± 0.007 | 0.28 ± 0.018 |
| FSSRVFLIVGIY | 0.45 ± 0.015 | 0.614 ± 0.05 | 0.33 ± 0.029 | 0.538 ± 0.021 | 0.2266 ± 0.0017 | 0.27 ± 0.023 | 0.4874 ± 0.0027 | 0.427 ± 0.025 |
| GYRYMWLWRLSA | 0.544 ± 0.027 | 0.706 ± 0.026 | 0.665 ± 0.036 | 0.762 ± 0.028 | 0.148 ± 0.0028 | 0.143 ± 0.032 | 0.235 ± 0.013 | 0.178 ± 0.095 |
| YRKKIKNIWLRW | 0.442 ± 0.017 | 0.428 ± 0.026 | 0.475 ± 0.033 | 0.6017 ± 0.0025 | 0.444 ± 0.058 | 0.322 ± 0.033 | 0.535 ± 0.0073 | 0.473 ± 0.041 |
| SFVVVFTFFFGC | 0.272 ± 0.018 | 0.381 ± 0.031 | 0.239 ± 0.032 | 0.408 ± 0.026 | 0.221 ± 0.011 | 0.258 ± 0.036 | 0.377 ± 0.02 | 0.312 ± 0.015 |
| EGGLGDRLLGVG | 0.526 ± 0.035 | 0.577 ± 0.0092 | 0.501 ± 0.0078 | 0.573 ± 0.021 | 0.5161 ± 0.0024 | 0.518 ± 0.016 | 0.547 ± 0.0066 | 0.47 ± 0.015 |
